{"source": "patent US20070142283A1", "target": "recombinant FGF-2 (rFGF-2) of SEQ ID NO: 2 (bovine) (UniProt P03969)", "sequence (P03969 10-155 limits assumed)": "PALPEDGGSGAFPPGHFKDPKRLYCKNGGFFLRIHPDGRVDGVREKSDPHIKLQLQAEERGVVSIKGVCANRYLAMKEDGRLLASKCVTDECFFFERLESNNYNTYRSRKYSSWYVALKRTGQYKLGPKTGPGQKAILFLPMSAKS", "test": "commercial ELISA for human FGF-2 (R&D Systems), cross-reactivity against human FGF-2"}
{"substance": "commercially available ELISA (R&D Systems, Minneapolis Minn.) that was marketed for analysis of human FGF-2 (antibody)", "values": [{"measurement": "cross-reactivity", "value": 100, "unit": "%"}]}
